According to patent US12227551B2, “Membrane bound IL12 compositions and methods for tunable regulation” (Obsidian Therapeutics, Inc., priority 2018, dated 2025):

Assays:
CD19+ Nalm6 tumors [1] = assay: Kaplan-Meier animal survival, Nalm6-Luc NSG model (Example 9; Table 29); assay type: in vivo, NSG mice
Experimental: (§1) The study was designed to determine if membrane bound IL12 (mbIL12) expressed on CAR-T cells via a CD8 TM domain and CD8 Hinge Region promotes CAR T cell expansion in cis, promotes non-CAR-T cell expansion in trans, and/or increases in vivo CAR T cell efficacy against CD19+ Nalm6 tumors. To test in vivo anti-tumor activity, experiments were performed in NSG mice. Nalm6 cells were transfected with Redifect Red-Fluc (Perkin Elmer) under selection using Puromycin for ˜2 months to generate a line that stably expresses the luciferase reporter; thereafter named Nalm6-Luc. Ten days before tumor implantation, Nalm6-Luc cells were thawed and cultured in puromycin-containing media. On day 0, cells were counted, resuspended in PBS and injected into NSG mice via tail vein. On day 6, mice were imaged for bioluminescent intensity (BLI) and sorted into groups based on their tumor size ensuring that all groups had the same sized tumors. Human T cells were transduced with one of the following constructs as shown in the study design in Table 27:
Percent survival was also measured for each group during the course of the experiment and the following numbers were obtained as shown in Table 29: […]

CD19+ Nalm6 tumors [2] = assay: Kaplan-Meier animal survival (Example 10; Table 35); assay type: in vivo, NSG mice
Experimental: as §1, with “To” for “The study was designed to determine if membrane bound IL12 (mbIL12) expressed on CAR-T cells via a CD8 TM domain and CD8 Hinge Region promotes CAR T cell expansion in cis, promotes non-CAR-T cell expansion in trans, and/or increases in vivo CAR T cell efficacy against CD19+ Nalm6 tumors. To”, “ensure” for “ensuring”, “33:” for “27:”
Percent survival was also measured for each group during the course of the experiment and the following numbers were obtained as shown in Table 35: […]

[3] = Body weight and clinical signs of GVHD, Nalm6-Luc NSG model (Example 9; Table 30); assay type: in vivo, NSG mice; details: in g (unit assumed)
Experimental: as §1
The amount of body weight loss appeared to correlate with the levels of plasma IL12 detected at earlier timepoints (Table 31).

T cells = assay: Percentage of CAR positive cells after 10 days expansion (Example 7); assay type: cell-based; details: T cells expanded for 10 days
[4] = Plasma IL12 and IFNgamma levels (Example 10; Table 36); assay type: in vivo, NSG mice; details: day 14 post T cell transfer; 1 million CAR+ T cells
Experimental: as §1, with “To” for “The study was designed to determine if membrane bound IL12 (mbIL12) expressed on CAR-T cells via a CD8 TM domain and CD8 Hinge Region promotes CAR T cell expansion in cis, promotes non-CAR-T cell expansion in trans, and/or increases in vivo CAR T cell efficacy against CD19+ Nalm6 tumors. To”, “ensure” for “ensuring”, “33:” for “27:”
Thus, anti-tumor efficacy (Table 34) appears to correlate with plasma IL12 and IFNgamma levels.

[5] = Plasma IL12 and IFNgamma cytokine levels, Nalm6-Luc NSG model (Example 9; Table 31); assay type: in vivo, NSG mice; details: day 14 post T cell transfer
Experimental: as §1
Thus, anti-tumor efficacy (Table 28) appears to correlate with plasma cytokine levels.

B1: OT-001356: CD19 CAR; stop; IRES; secreted IL12 (p40 23-328; (G4S)3; p35 57-253); nucleic acid SEQ ID NO: 482 (protein)
chain: IWELKKDVYVVELDWYPDAPGEMVVLTCDTPEEDGITWTLDQSSEVLGSGKTLTIQVKEFGDAGQYTCHKGGEVLSHSLLLLHKKEDGIWSTDILKDQKEPKNKTFLRCEAKNYSGRFTCWWLTTISTDLTFSVKSSRGSSDPQGVTCGAATLSAERVRGDNKEYEYSVECQEDSACPAAEESLPIEVMVDAVHKLKYENYTSSFFIRDIIKPDPPKNLQLKPLKNSRQVEVSWEYPDTWSTPHSYFSLTFCVQVQGKSKREKKDRVFTDKTSATVICRKNASISVRAQDRYYSSSWSEWASVPCSGGGGSGGGGSGGGGSRNLPVATPDPGMFPCLHHSQNLLRAVSNMLQKARQTLEFYPCTSEEIDHEDITKDKTSTVEACLPLELTKNESCLNSRETSFITNGSCLASRKTSFMMALCLSSIYEDLKMYQVEFKTMNAKLLMDPKRQIFLDQNMLAVIDELMQALNFNSETVPQKSSLEEPDFYKTKIKLCILLHAFRIRAVTIDRVMSYLNASGS
- Proportion of survival post tumor implant (CD19+ Nalm6 tumors [1]; day 0 post tumor implant): 100%
- Proportion of survival post tumor implant (CD19+ Nalm6 tumors [1]; day 41 post tumor implant): 50.0%
- Proportion of survival post tumor implant (CD19+ Nalm6 tumors [1]; day 43 post tumor implant): 50.0%
- Kaplan-Meier Analysis of Animal Survival (percent survival) (CD19+ Nalm6 tumors [2]; day 0 post tumor implant): 100%
- Kaplan-Meier Analysis of Animal Survival (percent survival) (CD19+ Nalm6 tumors [2]; day 41 post tumor implant): 100%
- body weight ([3]; day 6 post tumor implant (before T cell infusion)): 19.6125
- body weight ([3]; day 13 post tumor implant): 20.5125
- body weight ([3]; day 20 post tumor implant): 20.5875
- body weight ([3]; day 27 post tumor implant): 22.2125
- body weight ([3]; day 34 post tumor implant): 21.8875
- body weight ([3]; day 41 post tumor implant): 19.93
- Percentage of CAR positive cells (T cells): 45.3%
- Day 14 Plasma IFNgamma Levels [4]: 13,344 pg/mL
- Day 14 Plasma IL10 Levels [4]: 6.9 pg/mL
- Day 14 Plasma IL 12 Levels [4]: 2,434 pg/mL
- Day 14 Plasma IFNgamma Levels ([5]; cell dose 0.3 ×10e6): 17,565 pg/mL
- Day 14 Plasma IL 12 Levels ([5]; cell dose 0.3 ×10e6): 1,455 pg/mL
- Day 14 Plasma IFNgamma Levels ([5]; cell dose 1 ×10e6): 22,154 pg/mL
- Day 14 Plasma IL 12 Levels ([5]; cell dose 1 ×10e6): 3,853 pg/mL
